Assay [1] concerns the target soluble human FcγRIII (biotinylated) (human) (UniProt P08637). Description: ELISA: IgG captured on PSA-coated plate, biotinylated soluble FcγR, NeutrAvidin-AP, A560 background-subtracted and normalized.
Assay [2] deals with soluble human FcγRIIb (biotinylated) (human) (UniProt P31994). Described as above.
Assay [3] deals with soluble human FcγRIIa (biotinylated) (human) (UniProt P12318). The assay is described as above.
Assay [4] deals with soluble human FcγRIII (biotinylated) (human) (UniProt P08637). As to the kind of experiment: ELISA screen in a manner similar to the anti-PSA library, anti-TNFα parent IgG, biotinylated soluble FcγR, normalized signal. In general terms: ELISA stands for enzyme-linked immunosorbent assay.
For assay [5], the target named is soluble human FcγRIIb (biotinylated) (human) (UniProt P31994). Described as above.

These results are taken from patent US20060153838A1.

Chain of UniProt P08637 (P08637 17-208): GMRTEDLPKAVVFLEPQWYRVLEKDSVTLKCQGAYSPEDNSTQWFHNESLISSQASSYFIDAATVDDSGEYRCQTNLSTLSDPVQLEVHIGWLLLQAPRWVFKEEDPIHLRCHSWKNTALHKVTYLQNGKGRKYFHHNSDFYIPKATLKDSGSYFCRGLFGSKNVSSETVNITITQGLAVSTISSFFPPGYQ
Chain of UniProt P31994 (P31994 43-217): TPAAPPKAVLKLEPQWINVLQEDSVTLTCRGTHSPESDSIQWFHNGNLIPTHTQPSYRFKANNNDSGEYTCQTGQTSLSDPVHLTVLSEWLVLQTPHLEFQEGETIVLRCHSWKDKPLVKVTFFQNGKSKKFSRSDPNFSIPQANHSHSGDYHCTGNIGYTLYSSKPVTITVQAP
Chain of UniProt P12318 (P12318 34-217): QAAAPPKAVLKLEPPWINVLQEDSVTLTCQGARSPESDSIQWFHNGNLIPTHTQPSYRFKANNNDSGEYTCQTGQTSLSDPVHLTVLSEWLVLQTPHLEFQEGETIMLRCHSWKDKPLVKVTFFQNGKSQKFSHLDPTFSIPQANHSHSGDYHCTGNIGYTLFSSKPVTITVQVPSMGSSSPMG

In the case of “anti-PSA IgG Fc variant E294N (antibody)”, the relative FcγRIII (relative to parental antibody = 1.0) in assay [1] was 1.14. Also, the relative FcγRIIb (relative to parental antibody = 1.0) in assay [2] was 0.672.
Regarding “anti-PSA IgG Fc variant Q295K (antibody)”, the relative FcγRIII (relative to parental antibody = 1.0) in assay [1] worked out at 1.47. In addition, in assay [2], the relative FcγRIIb (relative to parental antibody = 1.0) amounted to 0.892.
With “anti-PSA IgG Fc variant Q295L (antibody)”, in assay [3], the relative FcγRIIa (relative to parental antibody = 1.0) was 1.44. In addition, the relative FcγRIII (relative to parental antibody = 1.0) in assay [1] is 1.06. Also, the relative FcγRIIb (relative to parental antibody = 1.0) in assay [2] stood at 1.34.
Turning to “anti-PSA IgG Fc variant S298D (antibody)”, the relative FcγRIII (relative to parental antibody = 1.0) in assay [1] came out at 2.31. Also, the relative FcγRIIb (relative to parental antibody = 1.0) in assay [2] was 0.188.
The matching figures for “anti-PSA IgG Fc variant S298N (antibody)”: 1.42 and 0.363.
As to “anti-PSA IgG Fc variant S298V (antibody)”, the relative FcγRIII (relative to parental antibody = 1.0) in assay [1] was determined as 2.8. The relative FcγRIIb (relative to parental antibody = 1.0) in assay [2] is 0.592.
In the case of “anti-PSA IgG Fc variant Y300I (antibody)”, the relative FcγRIII (relative to parental antibody = 1.0) in assay [1] is 1.38. For the same substance, in assay [2], the relative FcγRIIb (relative to parental antibody = 1.0) is 1.26.
On the same counts, the results for “anti-PSA IgG Fc variant Y300L (antibody)” are 1.81 and 1.36.
Regarding “anti-TNFα IgG Fc variant D280H (antibody)”, in assay [4], the relative FcγRIII (relative to parental antibody = 1.0) is 1.24. The relative FcγRIIb (relative to parental antibody = 1.0) in assay [5] was 0.92.
The matching figures for “anti-TNFα IgG Fc variant D280Q (antibody)”: 1.19 and 0.87.
The matching figures for “anti-TNFα IgG Fc variant D280Y (antibody)”: 1.23 and 2.14.
The matching figures for “anti-TNFα IgG Fc variant K290G (antibody)”: 1.64 and 1.46.
For “anti-TNFα IgG Fc variant K290S (antibody)”, in assay [4], the relative FcγRIII (relative to parental antibody = 1.0) amounted to 1.23. In assay [5], the relative FcγRIIb (relative to parental antibody = 1.0) amounted to 1.4.
